Assay results taken from the DeepSol protein solubility set.

test: soluble on expression in E. coli; label from the status in PepcDB or PDB records

Row | Sequence | soluble on expression in E. coli
1 | MTTTLKAIVRKPRTDGLYAVYIRIVHNRKPGYIKTNKIVDADHISKDNEPTDPVVNEYCSMLVRQYTDRLNRANTTLWSVSEIIEYLLKTDEEVCFSDYSRMFIRQMRLDGHERNAKNYQLAVAHLERYMGTTRVMFGHLTAAVLKKWIESLSKTHRAKEMYPTNVRMIFRSAIADMNDDEKGIQRIKFDPWVKVQIPKSEPSEKLAISAEECREFFNRPLPRTKMLSSLPELGRDVALLSLCLGGINTVDLYNLKKSDYHDGIIGYKRAKTKHSRKDEAYIEMRVEPFIQDTFNKYLSEEEDEFLFTFHQRYGNTDSFNANVNIGIRKICMDMGMTNKEDFYCFYTFRHTWATIAQNDCNANLYEVAFGMNHSHGFKVTRGYVKVDFTPAWALNARIIDFIFFSNKPSKQGLAKDLDESGDKMFRISAKMMIYARAYFKGEVIAEFTDIGFNNVDEVLSRIVKMFPKDIPVGCTVQIRLTNCDNHKEVVYERSKGKGF | not soluble
2 | MTVPHIPRGPVMADIAAFRLTEEEKQRLLDPAVGGIILFRRNFQNIEQLKTLTAEIKALRTPELIIAVDHEGGRVQRFIEGFTRLPAMSTLGEIWDKDGASAAETAAGQVGRVLATELSACGIDLSFTPVLDLDWGNCPVIGNRSFHRNPEAVARLALALQKGLTKGGMKSCGKHFPGHGFVEGDSHLVLPEDWRSLSELETADLAPFRIMSREGMAAVMPAHVVYPQVDTKPAGFSEIWLKQILRRDIGFKGVIFSDDLTMEGACGAGGIKERARISFEAGCDIVLVCNRPDLVDELREDFRIPDNPTLAQRWQYMANTLGSAAAQAVMQTADFQAAQAFVAGLASPQDTAGGVKVGEAF | not soluble
3 | MTVTFTLPLDCSFNNLWTCHAEGIERDLGKVGGGAASSGKTSTGVSRTVTRGVNLSGADFSEQDLSGVSFQQSLLRETDFHGAKLVSASFFGAELSYANLEDADLTEANLELANLRSAKLKNAVLRRAYFSGNTRLENVDIDGADFSEVILRKDQKKYLCNIANGTNSHTGVETKTSLGCNSS | not soluble
4 | MTWLTKDGRFAVYEDPFVTKLMNTIGSMTFDGLGFTLLELYRDLVISADNYFMNYVNYGETPHDVGEESIEDPIYGASYPYWWTDLGPTLVLMLYRDYVFTSNREILEKNYNKIKEIIDWLIRKDMDNDCIPDSKGGYDNSYDGTHMYGASSYIASMFLSALTAFIKMSEILDVKIDDKYYRFLECGKKTFNSLWNGKYFILWKKNDEENTSCLNSQLLGQFWCDILGLPPITDHDKINTALRSIYELNFKASKYCLTNAVREDGSVDSSTAQLRSCWPRVSFAVAAHMILRGMVKEGIEVAKREWETIKELNPFDQSSRIDAIDGKYVGLMSYIGSTSVWLLKLALDKIRLEHHHHHH | not soluble
5 | MTYLVTGATGGLGGYALNYLKELVPMSDIYALVRSKEKGADLKAAGFNIRVGDYSDAESMKQAFAGIDRVLFVSGAPGNRQVEHENVINAAKKAGVSYIAYTSFAGADKSTSALAEDHFFTEKVIEKSGIAHTFLRNNWYFENEMPMIGGALSAGKFVYAAENGKVGWALKREYAEVAAKAVAGAGFPEILELSGPLMTYEELTKALKEATGKDFDVISSDDKGFVENLVSVGLPQPVAEMFLSFQHDIKNDQLDVTSDDFEKALGKPLTNRVDALRELLKLEHHHHHH | soluble
6 | MTYTVGMYLAERLVQIGLKHHFAVAGDYNLVLLDQLLLNKDMKQIYCCNELNCGFSAEGYARSNGAAAAVVTFSVGAISAMNALGGAYAENLPVILISGAPNSNDQGTGHILHHTIGKTDYSYQLEMARQVTCAAESITDAHSAPAKIDHVIRTALRERKPAYLDIACNIASEPCVRPGPVSSLLSEPEIDHTSLKAAVDATVALLEKSASPVMLLGSKLRAANALAATETLADKLQCAVTIMAAAKGFFPEDHAGFRGLYWGEVSNPGVQELVETSDALLCIAPVFNDYSTVGWSAWPKGPNVILAEPDRVTVDGRAYDGFTLRAFLQALAEKAPARPASAQKSSVPTCSLTATSDEAGLTNDEIVRHINALLTSNTTLVAETGDSWFNAMRMTLPRGARVELEMQWGHIGWSVPSAFGNAMGSQDRQHVVMVGDGSFQLTAQEVAQMVRYELPVIIFLINNRGYVIEIAIHDGPYNYIKNWDYAGLMEVFNAGEGHGLGLKATTPKELTEAIARAKANTRGPTLIECQIDRTDCTDMLVQWGRKVASTNARKTTLALEHHHHHH | soluble
7 | MVASYEIEFIGEGEVAGILREALRTDSRVESFEEFERGFKLRLVGAKRRITIVCKGSVQSDDCLLIVNARKMPENGGIALNADKIAERCGSKPEIAMLGAIAKLGVVDLKRLMSVIYREMGYGDVLAVKKGFEATNI | not soluble
8 | MVATLIIIRGNSASGKSTIAKQLQAELGENTLLLSQDYLRREMLGTKDGENTTTIPLLINLLNYGYHNCSYIILEGILRSDWYTPVWKHILKHNPNNTYAYYYDLSFQETVKRHSTR | not soluble
9 | MVAVERVESLAKSGIISIPKEYIRPKEELESINDVFLEEKKEDGPQVPTIDLKNIESDDEKIRENCIEELKKASLDWGVMHLINHGIPADLMERVKKAGEEFFSLSVEEKEKYANDQATGKIQGYGSKLANNASGQLEWEDYFFHLAYPEEKRDLSIWPKTPSDYIEATSEYAKCLRLLATKVFKALSVGLGLEPDRLEKEVGGLEELLLQMKINYYPKCPQPELALGVEAHTDVSALTFILHNMVPGLQLFYEGKWVTAKCVPDSIVMHIGDTLEILSNGKYKSILHRGLVNKEKVRISWAVFCEPPKDKIVLKPLPEMVSVESPAKFPPRTFAQHIEHKLFGKEQEELVSEKND | soluble
10 | MVDGNYSVASNVMVPMRDGVRLAVDLYRPDADGPVPVLLVRNPYDKFDVFAWSTQSTNWLEFVRDGYAVVIQDTRGLFASEGEFVPHVDDEADAEDTLSWILEQAWCDGNVGMFGVSYLGVTQWQAAVSGVGGLKAIAPSMASADLYRAPWYGPGGALSVEALLGWSAKIGTGLITSRSDARPEDAADFVQLAAILNDVAGAASVTPLAEQPLLGRLIPWVIDQVVDHPDNDESWQSISLFERLGGLATPALITAGWYDGFVGESLRTFVAVKDNADARLVVGPWSHSNLTGRNADRKFGIAATYPIQEATTMHKAFFDRHLRGETDALAGVPKVRLFVMGIDEWRDETDWPLPDTAYTPFYLGGSGAANTSTGGGTLSTSISGTESADTYLYDPADPVPSLGGTLLFHNGDNGPADQRPIHDRDDVLCYSTEVLTDPVEVTGTVSARLFVSSSAVDTDFTAKLVDVFPDGRAIALCDGIVRMRYRETLVNPTLIEAGEIYEVAIDMLATSNVFLPGHRIMVQVSSSNFPKYDRNSNTGGVIAREQLEEMCTAVNRIHRGPEHPSHIVLPIIKRKLAAALEHHHHHH | soluble
11 | MVDGQPSLQQVLERVDEWMAKEGLLDPNVKSIFVTCGDWDLKVMLPGQCQYLGLPVADYFKQWINLKKAYSFAMGCWPKNGLLDMNKGLSLQHIGRPHSGIDDCKNIANIMKTLAYRGFIFKQTSKPF | not soluble
12 | MVDMAVTPVALLEASHLHYHVQQQALINDVSLHIASGEMVAIIGPNGAGKSTLLRLLTGYLSPSHGECHLLGQNLNSWQPKALARTRAVMRQYSELAFPFSVSEVIQMGRAPYGGSQDRQALQQVMAQTDCLALAQRDYRVLSGGEQQRVQLARVLAQLWQPQPTPRWLFLDEPTSALDLYHQQHTLRLLRQLTRQEPLAVCCVLHDLNLAALYADRIMLLAQGKLVACGTPEEVLNAETLTQWYQADLGVSRHPESALPQIYLRQ | not soluble
13 | MVDQATLDKLEAGFKKLQEASDCKSLLKKHLTKDVFDSIKNKKTGMGATLLDVIQSGVENLDSGVGIYAPDAESYRTFGPLFDPIIDDYHGGFKLTDKHPPKQWGDINTLVGLDPAGQFIISTRVRCGRSLQGYPFNPCLTAEQYKEMEEKVSSTLSSMEDELKGTYYPLTGMSKATQQQLIDDHFLFKEGDRFLQTANACRYWPTGRGIFHNDAKTFLVWVNEEDHLRIISMQKGGDLKTVYKRLVTAVDNIESKLPFSHDDRFGFLTFCPTNLGTTMRASVHIQLPKLAKDRKVLEDIASKFNLQVRGTRGEHTESEGGVYDISNKRRLGLTEYQAVREMQDGILEMIKMEKAAA | soluble
14 | MVDRFGDVLREWRQLRRMSQMDLGLSAGVSPRHISFLESGRALPSRGMVLRLCDELEVPGGARNRWLTSAGLAPAYHSRNGDAPEMAPLTQAVDWMLSRHAPYPAMAVDRHWRLKTMNRPARAMFAATGLGAGDGLIDALLDNPALAAALENRDEVERLSLTRLRTELAHFGRDPVLEQAVARLAERVARQPGAADAPMPAVIPARYRLGEAVLSFFTTITQFGATGDIAMSELRIEMFFPADDATRQMVEALWGNATPGN | not soluble
15 | MVEEQLSLSGVEEIAPKIETPKIEKRTVKERRQQVLTVLIHMLHSERGMERMTTARLAKEVGVSEAALYRYFPSKTKMFEALIEHIESTLLSRITASMRNETQTMNRIHDILQTILDFARKNPGLTRVLTGHALMFEEAQLQARVAQFFDRLEMQFVNILQMRKLREGRAFNVDERIIASHLVTLCEGQFMRYVRTNFRLNSSQSFEQQWRFIEPLFA | not soluble
16 | MVEERIINLSHEIKNFVYPNDPEFIVKTKKNGKYSVSELNMGVHTGTHIDYPMHVGLTNEKFENVFGKGYCVSLENMNDFFKNAPKNLEILLIKTDFSKYWEDPEYFEKECDIENHVEKLISMNLKAVGIDCCSIGNFSVHEKLLSSKIKIIENMKNLEILENKTFKFFGFPLNIEKIDGSPINAVAFLLEHHHHHH | not soluble
17 | MVEKEETKKRARSSSSSSSSSSGSSSSGSSSSGSRSSSSSSSGRSRSRSPRRRDTRPPARGGRSRSPIRRGSPPRGARADRDRPMRPSPSPPRRRRPSPSPPRRDRRDRSGSRQRRRASPRRSPAARSASPAKRVVIKNLSRNVLKTHLEEIFSIYGAIKNVDLPPDRFHNHVHRGYGYVEYDNLEDAEKSIKHMDGGQIDGMAVHVEMTIGRQSVPFQRRSSPFRRRSPPPRDRMSPMRRGGRSPPPHRRRSPMGGRGSGANNMPLGGPNRFRRASRSRSPAGRRSRS | soluble
18 | MVESTRVRSKRLSFSGKKTLSSFMQVNIASLRQSGKLRTSETYRATLNSFMKFMDGKDVLLSNMDAELMMGYETYLKAQGASMNTVSFYMRILRATYNRAVDKGVIRQRFPFKHVYTGVEKTVKRAISFKVIRQLKEMDLSHSQSMEFARDMFMFSFYTRGMSFVDMAFLKKTDLNNGMLTYRRKKTGQLLSIRWEKCMQDIVDKYPGNYSTYLLPIIIHIRKDERLQYKNSICLVNRRLKEIGKKLGLVHPLTMYVARHSWASVARGKHIPLSVISEGMGHDSEKTTLIYLAALDTTVIDKANMVVLREFL | not soluble
19 | MVFNRVVQIGRVVFIASGKDQGKLAAIVNVIDGNRVQIDGPSSDVTRTVRNLKDLQLTKFVLKLRVGQRTKGVKAAFDAAKVTENFQKTQWAKKIAQRAIRAKLTDFERYKLMKAKQMRNRIVRVELAKLKKAQK | not soluble
20 | MVGNPALAELLRAPRLIPWRNWSGAQSCLPLAREAPKDLDELVRIIRQASGRIRPVGSGHSFSALVPTDGTLLSLAYFSGLLSHDSVTLQAEFGGGTPMSQMGAPLKEIGQALVNMADIDYQTLAGAIATSTHGTGVGFGSYSAQVRGLQLVTASGEVLECDAKRNVEVFDAARVSLGALGVVTRVRLQNRAAYRLRERQWIARTEELLEDVEKNTRENQHWEMLVVTHSDYALSIALNETDEPKTPPLDPAKEGGNEFVGLIEGLDKYLSDFPETRRTLLNSLRHFARFDERVDDSYAVYANVRNVRFNEMEYSVPAEHGPACLREILALIRDKDLRTWFPIEYRYVKADDIPLSMFEGRDSCSISVHQHYSMDHHNFFAAVEPIFWKYAGRPHWGKLHGLNAHQLQGLYPRWKAFAEVRQALDPRGRFLNAHLSSILGVTKLAAALEHHHHHH | not soluble
